{
  "source": "paper PMC11633486",
  "about": "“The Intestinal Transporter SLC30A1 Plays a Critical Role in Regulating Systemic Zinc Homeostasis” (Advanced Science, 2024)",
  "proteins": {"B1": {"name": "full-length human SLC30A1 protein (natural protein, UniProt Q9Y6M5 1-507, looked up)", "chain": "MGCWGRNRGRLLCMLALTFMFMVLEVVVSRVTSSLAMLSDSFHMLSDVLALVVALVAERFARRTHATQKNTFGWIRAEVMGALVNAIFLTGLCFAILLEAIERFIEPHEMQQPLVVLGVGVAGLLVNVLGLCLFHHHSGFSQDSGHGHSHGGHGHGHGLPKGPRVKSTRPGSSDINVAPGEQGPDQEETNTLVANTSNSNGLKLDPADPENPRSGDTVEVQVNGNLVREPDHMELEEDRAGQLNMRGVFLHVLGDALGSVIVVVNALVFYFSWKGCSEGDFCVNPCFPDPCKAFVEIINSTHASVYEAGPCWVLYLDPTLCVVMVCILLYTTYPLLKESALILLQTVPKQIDIRNLIKELRNVEGVEEVHELHVWQLAGSRIIATAHIKCEDPTSYMEVAKTIKDVFHNHGIHATTIQPEFASVGSKSSVVPCELACRTQCALKQCCGTLPQAPSGKDAEKTPAVSISCLELSNNLEKKPRRTKAENIPAVVIEIKNMPNKQPESSL", "notes": "SLC30A1 (zinc transporter 1), human, full-length cDNA with codon optimization; Homodimer in the cryo-EM structure; the C291 residues of the two protomers form a disulfide bond; also called WT SLC30A1; wild-type SLC30A1; source: HEK293F, transfected (pEZT vector), purified (Strep-Tactin beads, Superose 6 gel filtration) in LMNG/CHS"}},
  "biological_target": "the molecule itself",
  "assay": "cryo-EM structure; purified wild-type SLC30A1 at 5 mg/mL in 25 mM Tris pH 8.0, 150 mM NaCl, 0.002% LMNG, 0.0004% CHS; C2 symmetry imposed; homodimer",
  "data": [
    {"protein": "B1", "values": [
      {"measurement": "stoichiometry N", "result": 2}
    ]}
  ]
}
